According to US12448434B2, “Antibodies specifically recognizing Pseudomonas PcrV and uses thereof” (priority 2019, dated 2025):

Assays:
[1] = system: P. aeruginosa (PA103 strain); test: Therapeutic mouse acute pneumonia model, survival; format: in vivo, BALB/c mice; settings: i.v. 1 h post-infection, 1 mg/kg or 10 mg/kg; 1*LD90; 6 days
Description: In a therapeutic model, to induce acute pneumonia, 7-8 week old BALB/c mice (Vital River Laboratory) were intranasally inoculated with P. aeruginosa (PA103 strain) suspended in a 40 μl inoculum at a lethal dose (1*LD90=8×10^5 CFU). Antibodies or PBS were administered intravenously (i.v.) at 1 h post-infection, at a dose of 1 mg/kg or 10 mg/kg mouse weight. Mouse survival was recorded for up to 6 days post-infection.

PcrV-negative A549 cells = test: Cross-reactivity to PcrV-negative A549 cells by FACS; format: cell-based, human; settings: FIGS. 4A-4E, compared with no antibody and V2L2-MD
Description: Cross-reactivity to A549 cells: Using FACS, parental antibody 13-42, optimized antibodies 7C1, 7B1, 8C1, 6D10 as well as V2L2-MD were tested for cross-reactivity to PcrV-negative A549 cells.

[2] = system: P. aeruginosa (PA103 strain); test: Prophylactic mouse acute pneumonia model, organ burden; format: in vivo, BALB/c mice; settings: 10 mg/kg i.p. 24 hr before infection; 0.5*LD90; FIG. 8B
Description: In a prophylactic model, 7-8 week old BALB/c mice (Vital River Laboratory) were administered with antibodies or PBS intraperitoneally (i.p.) 24 hr before infection, at 10 mg/kg mouse weight. To induce acute pneumonia, the BALB/c mice were intranasally inoculated with P. aeruginosa (PA103 strain) suspended in a 40 μl inoculum at half the lethal dose (0.5*LD90; 3×10^5 CFU). 24 hours post-infection, mice were euthanized, where the lungs, spleens and kidneys were extracted, homogenized and diluted before plating on agar to measure the viable bacteria units (in CFU), which represented the P. aeruginosa burden in the respective organ sample.

BV particles = test: Cross-reactivity to BV particles by ELISA; format: binding; settings: FIG. 3
Description: Cross-reactivity to BV particles: Using ELISA, optimized antibodies 7C1, 7B1, 8C1, 6D10, and reference antibodies V2L2-MD and Mab166 were tested for cross-reactivity to BV particles according to the method described previously (See Hötzel I, et al, 2012, mAbs 4:6, 753-760).

[3] = rat, in vivo, iv
Description: Pharmacokinetic profile in rat: 40 healthy adult rats (about 0.2 kg by weight) were equally into two groups, where each group registered similar average weight. One group was injected intravenously with 30 mg/kg of V2L2-MD, 7C1, 7B1, 8C1 or 6D10 and the other group was injected intravenously with 3 mg/kg of V2L2-MD, 7C1, 7B1, 8C1 or 6D10. Blood was collected at […], and subsequently at 0 hour, 0.5 hour, 2 hour, 8 hour, 1 day, 3 days, 7 days, 11 days, 17 days, 23 days, 31 days, 41 days and 52 days after injection. After centrifugation, the plasma was used for analyzing antibody concentration using ELISA. For the ELISA experiment, synthetic PcrV was used to coat the wells of a 96-well plate. On the following day, after washing with PBST, blocking with 200 μL PBS-milk for an hour, and another wash with PBST, the plasma was added and incubated for an hour at 37° C. The plate was washed with 0.1% TBST for 6 times before 100 μL of Goat-anti-human Fc antibody-AP (1:3000 in PBS) was added to each well and incubated for an hour. After washing with 0.1% TBST for 6 times, 50 μL of pNPP was added to each well and color was developed for 10-20 minutes at 37° C. The signals were read by a microplate reader at 410 nm.

[4] = system: PcrV mutants (with mutations at position 225); test: Binding to PcrV mutants with mutations at position 225; set-up: species or system Pseudomonas aeruginosa; settings: data not shown
Description: To further illustrate the optimized antibodies could broadly neutralize P. aeruginosa strains, the abilities of these antibodies to bind various forms of PcrV mutants were tested. Briefly, 100 PcrV sequences were randomly selected from Genebank database. In contrast to the wild type sequence as shown in SEQ ID No: 71, 13% of the selected sequences contained R, G, or K at position 225 (as compared of S in the wild type sequence SEQ No: 71), which was the main mutation around the epitope of 7B1.
These findings further illustrate that the optimized anti-PcrV antibodies could neutralize a broad spectrum of P. aeruginosa strains, which might express various forms of PcrV mutants.

[5] = system: P. aeruginosa strains O6-57/66, O11-PA103, O1-52/66 and O16-177/81; test: A549 cell lysis inhibition, various strains (average); format: cell-based, Pseudomonas aeruginosa; settings: FIGS. 6A-6D
Description: To assay for ability to inhibit cytotoxicity and cell lysis caused by P. aeruginosa, the candidate anti-PcrV antibodies were added to human bronchoepithelial cell line A549 or human histiocytic lymphoma cell line U937 seeded in white 96-well plates (Nunc Nunclon Delta) in DMEM plus 10% fetal bovine serum. Log-phase strain PA103(O11) P. aeruginosa was added at a multiplicity of infection (MOI) of 10 and incubated for 2 h at 37° C. and 5% CO2, followed by 20 minutes of equilibration at room temperature. Lactate dehydrogenase (LDH) released from lysed cells was quantified using the CytoTox-ONE kit (Promega), to assay membrane integrity. The relative amount of lysis inhibition was plotted accordingly. IC50 values for the antibodies were also determined.
The optimized anti-PcrV mAb clones 7C1, 8C1, and 7B1 were analyzed for their abilities to inhibit A549 cell lysis by various strains of P. aeruginosa, namely strains O6-57/66, O11-PA103, O1-52/66 and O16-177/81, as compared to the parental 13-42 mAb. A549 cell lysis inhibition assay was performed as described in Example 2.

PcrV = test: BIACORE binding to PcrV; set-up: species or system Pseudomonas aeruginosa; settings: data not shown
Description: The association constant (ka), dissociation constant (kd) and the equilibrium dissociation constant (kD) for binding of optimized anti-PcrV mAb clones 7B1, 7C1, 8C1, 6D10 and reference antibody V2L2-MD to PcrV were tested by BIACORE (GE company).

Row | Molecule | survival improvement relative to V2L2-MD [1] | binding to PcrV-negative A549 cells (PcrV-negative A549 cells) | reduction of organ burden in the lung, spleen and kidney relative to HIV-10E8 [2] | reduction of organ burden in the lung, spleen and kidney relative to V2L2-MD [2] | non-specific binding to BV particles (BV particles) | half-lives relative to reference antibody V2L2-MD [3] | binding to PcrV mutants with R, G or K at position 225 [4] | efficacy in inhibiting A549 lysis by four strains relative to parental 13-42 mAb [5] | association and dissociation kinetics in PcrV binding (ka and kd values) (PcrV)
1 | 7B1: optimized anti-PcrV mAb clone; VH SEQ ID NO: 62, VL SEQ ID NO: 67 (antibody, V domains shown) VH: EVQLLESGGGLVQPGGSLRLSCTASGFTFSDNYMSWVRQAPGKGLDWVSVISESGGSTNYADSVKGRFSTSRDNSKSTLYLDMNSLRAEDTAIYYCAKGRFSTLSSHFFRAVYGMDVWGQGTAVTVSS VL: DIQLTQSPSSLSASVGDRVTITCRASQGISSYLAWYQQKPGKAPKLLIYAASTLQSGVPSRFSGSGSGTDFTLTISSLQPEDFATYYCQQLSSYPLTFGGGTKVEIK | survival improvement comparable to that of V2L2-MD | similarly low levels of A549 binding | higher efficacy in reducing organ burden | comparable efficacy in reducing organ burden | low levels of non-specific binding | comparable to or longer than that of reference antibody V2L2-MD | strongly bind these mutants | comparable efficacy in inhibiting A549 lysis | comparable association and dissociation kinetics
2 | 7C1: optimized anti-PcrV mAb clone; VH SEQ ID NO: 52, VL SEQ ID NO: 65 (antibody, V domains shown) VH: EVQLLESGGGLVQPGGSLRLSCTASGFTFSDNHMSWVRQAPGKGLDWVSGISESGGSTNYADSVKGRFSTSRDNSKSTLYLDMNSLRAEDTAIYYCAKGRFSTSSSHFYRAVYGMDVWGQGTAVTVSS VL: DIQLTQSPSSLSASVGDRVTITCRASQGISSYLAWYQQKPGKAPKLLIYAASTLQSGVPSRFSGSGSGTDFTLTISSLQPEDFATYYCQQLSSYPLSFGGGTKVEIK | survival improvement comparable to that of V2L2-MD | similarly low levels of A549 binding | higher efficacy in reducing organ burden | comparable efficacy in reducing organ burden | low levels of non-specific binding | comparable to or longer than that of reference antibody V2L2-MD | strongly bind these mutants | comparable efficacy in inhibiting A549 lysis | comparable association and dissociation kinetics
3 | 8C1: optimized anti-PcrV mAb clone; VH SEQ ID NO: 51, VL SEQ ID NO: 67 (antibody, V domains shown) VH: EVQLLESGGGLVQPGGSLRLSCTASGFTFSDNHMSWVRQAPGKGLDWVSGISESGGSTNYADSVKGRFSTSRDNSKSTLYLDMNSLRAEDTAIYYCAKGRFSTNSAHFFRAVYGMDVWGQGTAVTVSS VL: DIQLTQSPSSLSASVGDRVTITCRASQGISSYLAWYQQKPGKAPKLLIYAASTLQSGVPSRFSGSGSGTDFTLTISSLQPEDFATYYCQQLSSYPLTFGGGTKVEIK | survival improvement comparable to that of V2L2-MD | similarly low levels of A549 binding | higher efficacy in reducing organ burden | comparable efficacy in reducing organ burden | low levels of non-specific binding | comparable to or longer than that of reference antibody V2L2-MD | strongly bind these mutants | comparable efficacy in inhibiting A549 lysis | comparable association and dissociation kinetics
